Data published in US20250076311A1 (Chugai, published 2025).
Positions count from the first letter of the chain named. Names may count otherwise.

B1: M103205H795-MY012/M103202L889-SK1 (antibody, human IgG1, kappa, name in EU numbering)
heavy: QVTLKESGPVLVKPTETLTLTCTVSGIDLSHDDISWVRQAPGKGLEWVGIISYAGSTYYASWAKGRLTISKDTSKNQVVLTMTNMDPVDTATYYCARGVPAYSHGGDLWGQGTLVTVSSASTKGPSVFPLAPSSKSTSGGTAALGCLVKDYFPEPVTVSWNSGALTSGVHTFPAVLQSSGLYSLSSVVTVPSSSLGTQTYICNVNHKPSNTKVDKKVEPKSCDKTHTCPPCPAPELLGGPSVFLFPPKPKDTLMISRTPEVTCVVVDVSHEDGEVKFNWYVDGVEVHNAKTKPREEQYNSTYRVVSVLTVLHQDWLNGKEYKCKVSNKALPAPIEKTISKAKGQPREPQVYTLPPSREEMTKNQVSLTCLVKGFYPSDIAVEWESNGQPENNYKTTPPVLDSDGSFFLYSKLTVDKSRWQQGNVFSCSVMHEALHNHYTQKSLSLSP
light: DIVMTQSPATLSLSPGERATLSCTSSQSVYHANWLSWFQQKPGQPPKLLIYWASTLAYGVPSRFSGSGSGTDFTLTISSLQPEDAATYYCAGGYGGGRYAFGQGTKVEIKRTVAAPSVFIFPPSDEQLKSGTASVVCLLNNFYPREAKVQWKVDNALQSGNSQESVTEQDSKDSTYSLSSTLTLSKADYEKHKVYACEVTHQGLSSPVTKSFNRGEC
notes: Substitution introduced into M103205H795-SG1; EU numbering
B2: M103205H795-MY065/M103202L889-SK1 (antibody, human IgG1, kappa, name in EU numbering)
heavy: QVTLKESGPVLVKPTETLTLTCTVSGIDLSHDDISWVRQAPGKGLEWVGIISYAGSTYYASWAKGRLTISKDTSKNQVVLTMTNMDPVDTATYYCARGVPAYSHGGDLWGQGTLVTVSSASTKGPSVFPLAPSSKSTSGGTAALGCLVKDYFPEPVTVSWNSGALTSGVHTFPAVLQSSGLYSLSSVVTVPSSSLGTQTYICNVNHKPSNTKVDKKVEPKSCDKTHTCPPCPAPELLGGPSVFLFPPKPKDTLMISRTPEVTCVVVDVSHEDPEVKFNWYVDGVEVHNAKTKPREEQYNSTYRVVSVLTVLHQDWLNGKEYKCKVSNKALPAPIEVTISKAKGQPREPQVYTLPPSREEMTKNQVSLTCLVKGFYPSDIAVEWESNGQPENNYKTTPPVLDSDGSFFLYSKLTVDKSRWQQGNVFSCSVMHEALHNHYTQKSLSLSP
light: B1 light
B3: MS103240H795-SG1074/M103202L1045-SK1 (antibody, name in EU numbering)
heavy: QVQLVESGGGLVQPGGSLRLSCAVSGIDLSHDDISWVRQAPGKGLEWVSIISYAGSTYYASWAKGRLTISKDTSKNQVVLTMTNMDPVDTATYYCARGVPAYSHGGDLWGQGTLVTVSSASTKGPSVFPLAPSSKSTSGGTAALGCLVKDYFPEPVTVSWNSGALTSGVHTFPAVLQSSGLYSLSSVVTVPSSSLGTQTYICNVNHKPSNTKVDKKVEPKSCDKTHTCPPCPAPELLNGPSVFLFPPKPKDTLMISRTPEVTCVVVDVSDEDPEVKFNWYVDGVEVHNAKTKPREELYNSTYRVVSVLTVLHRDWLNGKEYKCKVSNTALPKPIEKTISKAKGQRREPQVYTLPPSREEMTKNQVSLTCLVKGFYPSDIAVEWESNGQPENNYKTTPPVLDSDGSFFLYSKLTVDKSRWQQGNVFSCSVLHEALHAHTTRKELSLSP
light: B1 light with S25T, A32E
notes: also called MS1032LO19-SG1074
B4: MS103205H795-SG1016/M103202L889-SK1 (antibody, human IgG1, kappa)
heavy: QVTLKESGPVLVKPTETLTLTCTVSGIDLSHDDISWVRQAPGKGLEWVGIISYAGSTYYASWAKGRLTISKDTSKNQVVLTMTNMDPVDTATYYCARGVPAYSHGGDLWGQGTLVTVSSASTKGPSVFPLAPSSKSTSGGTAALGCLVKDYFPEPVTVSWNSGALTSGVHTFPAVLQSSGLYSLSSVVTVPSSSLGTQTYICNVNHKPSNTKVDKKVEPKSCDKTHTCPPCPAPELLNGPSVFLFPPKPKDTLMISRTPEVTCVVVDVSEEDPEVKFNWYVDGVEVHNAKTKPREEQYNSTYRVVSVLTVLHRDWLNGKEYKCKVSNKALPKPIEKTISKAKGQPREPQVYTLPPSREEMTKNQVSLTCLVKGFYPSDIAVEWESNGQPENNYKTTPMVLKSDGSFFLYSKLTVDKSRWQQGNVFSCSVMHEALHAHYTQKSLSLSP
light: B1 light
notes: Built from the text: Q311R/D399K introduced into SG1012; also called MS1032LO06-SG1016
B5: M103205H795-MY145/M103202L889-SK1 (antibody, human IgG1, kappa, name in EU numbering)
heavy: B4 heavy with R313Q, K332A, P333E, K401D, A436N
light: B1 light
notes: Fc variant of MS1032LO06-SG1; positions in EU numbering
B6: M103205H795-MY066/M103202L889-SK1 (antibody, human IgG1, kappa, name in EU numbering)
heavy: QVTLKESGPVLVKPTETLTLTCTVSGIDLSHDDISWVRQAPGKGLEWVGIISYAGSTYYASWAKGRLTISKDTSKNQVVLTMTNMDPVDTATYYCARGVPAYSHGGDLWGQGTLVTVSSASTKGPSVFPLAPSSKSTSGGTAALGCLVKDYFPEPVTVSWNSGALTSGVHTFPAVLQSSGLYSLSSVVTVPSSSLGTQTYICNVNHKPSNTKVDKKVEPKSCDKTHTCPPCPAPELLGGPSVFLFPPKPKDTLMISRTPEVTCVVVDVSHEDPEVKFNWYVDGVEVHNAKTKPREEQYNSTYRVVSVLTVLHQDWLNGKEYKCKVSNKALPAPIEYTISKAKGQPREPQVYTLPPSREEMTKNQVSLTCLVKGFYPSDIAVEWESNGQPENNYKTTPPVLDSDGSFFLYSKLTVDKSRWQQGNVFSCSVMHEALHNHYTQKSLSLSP
light: B1 light
B7: M103205H795-MY211/M103202L889-SK1 (antibody, human IgG1, kappa, name in EU numbering)
heavy: B4 heavy with S241V, E270D, R313Q, K328T, M398P, K401D, A436N
light: B1 light
notes: as for B5
B8: M103205H795-MY198/M103202L889-SK1 (antibody, human IgG1, kappa, name in EU numbering)
heavy: B4 heavy with S241V, E270D, R313Q, K401D, A436N
light: B1 light
notes: as for B5
B9: MS103205H795-SG1012/M103202L889-SK1 (antibody, human IgG1, kappa)
heavy: B4 heavy with R313Q, K401D
light: B1 light
notes: also called MS1032LO06-SG1012
B10: M103205H795-MY067/M103202L889-SK1 (antibody, human IgG1, kappa, name in EU numbering)
heavy: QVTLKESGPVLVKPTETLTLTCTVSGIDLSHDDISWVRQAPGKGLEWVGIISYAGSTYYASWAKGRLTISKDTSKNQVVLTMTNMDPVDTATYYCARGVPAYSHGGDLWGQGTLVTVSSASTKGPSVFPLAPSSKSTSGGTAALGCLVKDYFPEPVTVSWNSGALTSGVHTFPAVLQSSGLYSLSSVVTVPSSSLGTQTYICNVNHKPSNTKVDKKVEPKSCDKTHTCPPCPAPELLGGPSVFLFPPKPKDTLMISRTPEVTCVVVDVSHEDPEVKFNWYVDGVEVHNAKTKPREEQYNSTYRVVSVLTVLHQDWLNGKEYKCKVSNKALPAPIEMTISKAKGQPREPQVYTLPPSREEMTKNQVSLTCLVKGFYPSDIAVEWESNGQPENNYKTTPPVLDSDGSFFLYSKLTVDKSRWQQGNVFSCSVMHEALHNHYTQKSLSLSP
light: B1 light
B11: MS103240H795-SG1080/M103202L1045-SK1 (antibody, name in EU numbering)
heavy: B3 heavy with L430M, T438Y
light: B1 light with S25T, A32E
notes: Built from the text: MY209 plus Q311R/P343R and N434A/Q438R/S440E; also called MS1032LO19-SG1080
B12: M103205H795-MY015/M103202L889-SK1 (antibody, human IgG1, kappa, name in EU numbering)
heavy: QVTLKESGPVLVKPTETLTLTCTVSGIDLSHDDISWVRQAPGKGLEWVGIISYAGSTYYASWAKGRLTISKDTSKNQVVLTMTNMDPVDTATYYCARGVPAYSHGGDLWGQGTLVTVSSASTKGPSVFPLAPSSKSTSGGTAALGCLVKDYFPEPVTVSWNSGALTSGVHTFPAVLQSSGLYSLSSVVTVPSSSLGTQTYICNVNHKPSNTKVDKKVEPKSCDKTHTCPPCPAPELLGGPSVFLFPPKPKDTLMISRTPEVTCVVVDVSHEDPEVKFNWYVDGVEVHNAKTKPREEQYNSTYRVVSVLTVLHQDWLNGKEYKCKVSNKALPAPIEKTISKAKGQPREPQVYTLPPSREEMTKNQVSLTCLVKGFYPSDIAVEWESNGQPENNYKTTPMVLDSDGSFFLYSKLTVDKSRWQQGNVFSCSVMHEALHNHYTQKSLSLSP
light: B1 light
B13: M103205H795-MY117/M103202L889-SK1 (antibody)
heavy: B4 heavy with L236W, S269A, R313Q, K332A, K401D, A436N
light: B1 light
notes: Fc variant of MS1032LO06-SG1; EU numbering

Columns and labels:
[1] = molecular target: T1, human FcγRIIaR extracellular domain, His-tagged (human, UniProt P12318 34-217); test: SPR Biacore, KD(SG1)/KD(variant)
T1 construct: also called human FcγRIIa (type R); FcgRIIaR; not shown: C-terminal His-tag
T1 chain: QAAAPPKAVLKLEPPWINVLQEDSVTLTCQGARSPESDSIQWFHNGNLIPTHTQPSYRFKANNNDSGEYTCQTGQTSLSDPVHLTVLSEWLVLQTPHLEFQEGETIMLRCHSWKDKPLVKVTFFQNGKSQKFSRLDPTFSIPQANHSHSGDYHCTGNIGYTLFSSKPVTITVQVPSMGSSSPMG
Procedure: (§1) The kinetic analysis of interactions between these antibodies and FcγR was carried out using BIACORE® T200 or BIACORE® 4000 (GE Healthcare). HBS-EP+ (GE Healthcare) was used as the running buffer, and the measurement temperature was set to 25° C. […] After the measurement, the antibody captured on the chip was washed off by allowing reaction with 10 mM glycine-HCl, pH1.5 and 25 mM NaOH so that the chip was regenerated and used repeatedly. The sensorgrams obtained as measurement results were analyzed by the 1:1 Langmuir binding model using the BIACORE® Evaluation Software to calculate the binding rate constant ka (L/mol/s) and dissociation rate constant kd (1/s), and the dissociation constant KD (mol/L) was calculated from these values. […] Regarding such interactions, KD values were calculated using the following 1:1 binding model described in BIACORE® T100 Software Handbook BR1006-48 Edition AE.

[2] = molecular target: T2, human FcγRIIb extracellular domain, His-tagged (human, UniProt P31994 43-217); test: SPR Biacore, KD(SG1)/KD(variant)
T2 construct: also called FcgRIIb (human); not shown: C-terminal His-tag
T2 sequence: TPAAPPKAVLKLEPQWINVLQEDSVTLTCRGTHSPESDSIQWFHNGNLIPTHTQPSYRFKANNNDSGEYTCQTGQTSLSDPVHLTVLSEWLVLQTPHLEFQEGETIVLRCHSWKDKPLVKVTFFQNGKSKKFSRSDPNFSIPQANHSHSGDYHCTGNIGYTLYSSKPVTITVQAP
Procedure: as §1

[3] = molecular target: T3, cynomolgus monkey FcγRIIIaS extracellular domain, His-tagged (cynomolgus monkey, UniProt A3RFZ7 21-206 (rhesus entry)); test: SPR (BIACORE), antibody captured on chip, FcγR as analyte, 25 C; KD of M103205H795-SG1 divided by KD of the variant
T3 construct: also called cyno FcγRIIIaS; cynoFcγRIIIaS; not shown: His-tag added to the C-terminus
Procedure: as §1

[4] = molecular target: T4, human FcγRIIb extracellular domain, His-tagged (human, UniProt P31994 43-217); test: SPR, 25C, antibody captured, FcγR as analyte
T4 construct: also called FcgRIIb (human)
T4 sequence: T2 sequence
Procedure: as §1

[5] = molecular target: T5, human FcγRIIaR extracellular domain with C-terminal His-tag (human, UniProt P12318 34-217); test: SPR (BIACORE), antibody captured, FcgR analyte
T5 construct: also called human FcgRIIaR; FcγRIIa type R; not shown: His-tag added to the C-terminus
T5 chain: T1 chain

[6] = molecular target: T6, human FcγRIIIaV extracellular domain with C-terminal His-tag (human, UniProt P08637 17-208); test: SPR (BIACORE), antibody captured, FcgR analyte
T6 construct: also called human FcgRIIIaV; not shown: His-tag added to the C-terminus

[7] = molecular target: T7, cynomolgus monkey FcγRIIIaS extracellular domain with C-terminal His-tag (cynomolgus monkey, UniProt A3RFZ7 21-206 (rhesus entry)); test: SPR (BIACORE), antibody captured, FcgR analyte
T7 construct: also called cyno FcgRIIIaS; cynoFcγRIIIaS; not shown: His-tag added to the C-terminus

[8] = molecular target: T8, human FcγRIIb extracellular domain with C-terminal His-tag (human, UniProt P31994 43-217); test: SPR (BIACORE), antibody captured, FcgR analyte
T8 construct: also called human FcgRIIb; not shown: His-tag added to the C-terminus
T8 sequence: T2 sequence

[9] = molecular target: T9, cynomolgus monkey FcγRIIa2 extracellular domain with C-terminal His-tag (cynomolgus monkey); test: SPR (BIACORE), antibody captured, FcgR analyte
T9 construct: also called cyno FcgRIIa2; cynoFcγRIIa2; not shown: His-tag added to the C-terminus
T9 chain: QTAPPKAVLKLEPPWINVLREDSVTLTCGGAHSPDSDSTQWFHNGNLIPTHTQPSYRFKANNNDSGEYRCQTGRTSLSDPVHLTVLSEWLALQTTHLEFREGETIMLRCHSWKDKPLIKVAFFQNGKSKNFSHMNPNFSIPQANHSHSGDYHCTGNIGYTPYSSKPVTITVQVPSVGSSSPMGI

[10] = molecular target: T10, cynomolgus monkey FcγRIIa3 extracellular domain with C-terminal His-tag (cynomolgus monkey); test: SPR (BIACORE), antibody captured, FcgR analyte
T10 construct: also called cyno FcgRIIa3; cynoFcγRIIa3; not shown: His-tag added to the C-terminus
T10 chain: T9 chain with K127I, N130K, H133P, Q142R

[11] = molecular target: T11, cynomolgus monkey FcγRIIa1 extracellular domain with C-terminal His-tag (cynomolgus monkey); test: SPR (BIACORE), antibody captured, FcgR analyte
T11 construct: also called cyno FcgRIIa1; cynoFcγRIIa1; not shown: His-tag added to the C-terminus
T11 chain: T9 chain with T95P, A121T, K127I, S128A, N130K, N135D, Q142R

[12] = molecular target: T12, cynomolgus monkey FcγRIIb extracellular domain with C-terminal His-tag (cynomolgus monkey); test: SPR (BIACORE), antibody captured, FcgR analyte
T12 construct: also called cyno FcgRIIb; cynoFcγRIIb; not shown: His-tag added to the C-terminus
T12 chain: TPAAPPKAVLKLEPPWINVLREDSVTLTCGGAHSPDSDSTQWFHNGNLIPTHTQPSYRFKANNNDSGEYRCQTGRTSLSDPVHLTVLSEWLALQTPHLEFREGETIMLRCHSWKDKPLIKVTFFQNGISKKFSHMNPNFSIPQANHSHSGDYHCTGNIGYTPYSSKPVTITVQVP

[13] = molecular target: T13, human FcγRIIaH extracellular domain with C-terminal His-tag (human, UniProt P12318 34-217); test: SPR (BIACORE); KD of SG1 / KD of variant
T13 construct: also called human FcgRIIaH; FcγRIIa type H; not shown: His-tag added to the C-terminus
T13 sequence: T1 chain with R134H

[14] = molecular target: T7, cynomolgus monkey FcγRIIIaS …; test: SPR (BIACORE); KD of SG1 / KD of variant

T7 sequence (A3RFZ7 21-206): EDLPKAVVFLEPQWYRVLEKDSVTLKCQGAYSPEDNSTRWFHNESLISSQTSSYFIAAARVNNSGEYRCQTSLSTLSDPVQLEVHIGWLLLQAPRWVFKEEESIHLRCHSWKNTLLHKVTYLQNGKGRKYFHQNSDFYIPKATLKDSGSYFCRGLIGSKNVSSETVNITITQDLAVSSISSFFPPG
T6 sequence (P08637 17-208 F176V): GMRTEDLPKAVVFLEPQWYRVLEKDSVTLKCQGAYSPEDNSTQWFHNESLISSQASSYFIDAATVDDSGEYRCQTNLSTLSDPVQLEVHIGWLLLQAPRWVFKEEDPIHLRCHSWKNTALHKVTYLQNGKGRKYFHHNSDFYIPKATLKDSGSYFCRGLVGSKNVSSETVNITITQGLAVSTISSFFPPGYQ

Binder	KD fold (SG1 = 1) [3] [fold]	fold enhanced affinity compared to SG1 [4] [fold]	Kd [6] [nM]	Kd [7] [nM]	further results
B1	–	–	–	–	KD fold (SG1 = 1) [1]: 4 fold; KD fold (SG1 = 1) [2]: 5.1 fold
B2	3.27	–	–	–	–
B3	–	10	–	–	–
B4	–	10	–	–	–
B5	–	–	9100	3600	Kd [5]: 2500 nM; Kd [8]: 1200 nM; Kd [9]: 2400 nM; Kd [10]: 10000 nM; Kd [11]: 1900 nM; Kd [12]: 980 nM
B6	2.25	–	–	–	–
B7	–	–	48000	3000	Kd [5]: 1300 nM; Kd [8]: 820 nM; Kd [9]: 580 nM
B8	–	–	6900	2700	Kd [9]: 330 nM
B9	–	10	–	–	–
B10	3.6	–	–	–	–
B11	–	10	–	–	–
B12	3.6	–	–	–	–
B13	–	–	7900	1000	KD fold (SG1 = 1) [13]: 0.5 fold; KD fold (SG1 = 1) [14]: 0.36 fold; Kd [5]: 1000 nM
